For three molecules, growth inhibition of SK-BR-3 cells (crystal violet staining), EC50 of tyrosine phosphorylation in MCF7 cells and EC50 results are on record in patent US6916624 (Genentech, dated 2005).

Broadly, the EC50 is the concentration that produces a half-maximal response. Low values mean greater potency, high ones weaker potency.

Assay [1] concerns the target ErbB2 on human breast cancer cells (MDA-MB-175, SK-BR-3) (human) (UniProt P04626). Briefly: cell-based or functional assay.
Assay [2] deals with ErbB receptor(s) on MCF7 cells. Briefly: cell-based or functional assay.
In assay [3] the target is ErbB receptor(s) on MCF7 cells. The assay can be described thus: cell-based or functional assay. The source holds these as a separate data set.
Assay [4] has as its target T1, ErbB3-immunoadhesin (ErbB3-IgG fusion, L636 ErbB3-(TR)-DKTH224 VH) (human, UniProt P21860 20-643; P01857 104-330 = IgG part).
T1 construct: extracellular domain;domain: hinge domain of the immunoglobulin onward; Made in HEK-293 cells, purified on Protein A; also called ErbB3 immunoadhesins
Briefly: competitive displacement of ^125I-HRGβ1(177-244) (0.23 nM) from ErbB3-IgG captured on goat-anti-human antibody coated wells. The protocol: (§1) ¹²⁵I-HRG Binding Assay. Binding assays were performed in Nunc breakapart strip wells. Plates were coated at 4° C. overnight with 100 μl of 5 μg/ml goat-anti-human antibody (Boehringer Mannheim) in 50 mM carbonate buffer (pH 9.6). Plates were rinsed twice with wash buffer (PBS/0.05% Tween-20™) and blocked with 100 μl 1% BSA/PBS for 30 min. Buffer was removed and each well was incubated with 15 ng IgG fusion protein in 1% BSA/PBS under vigorous shaking for 1.5 hours. Plates were rinsed three times with wash buffer and competitive binding was carried out by adding various amounts of γ-HRG and ¹²⁵I-HRGβ1 under vigorous shaking. After incubation for 1.5–2 hours, wells were rinsed three times with wash buffer, drained and individual wells were counted using a 100 Series Iso Data γ-counter.
(§2) Bio/Technology 11:187–193 (1993)). Under those conditions trxγ-HRG accumulated in inclusion bodies from which the recombinant protein was isolated. Following purification, the protein was sulfitolyzed and then refolded by the addition of cysteine. The interaction of γ-HRG with the heregulin receptors ErbB3 and ErbB4 was examined. […] Cells were treated with various amounts of γ-HRG and tyrosine kinase activity was determined using immunoblotting with anti-phosphotyrosine antibody.

Assay [5] concerns the target T2, ErbB4-immunoadhesin (ErbB4-IgG fusion, G640 ErbB4-(TR)-DKTH224 VH) (human, UniProt Q15303 26-651; P01857 104-330 = IgG part).
T2 construct: extracellular domain;domain: hinge domain of the immunoglobulin onward; also called H4-IgG; ErbB4 immunoadhesins
The assay can be described thus: competitive displacement of ^125I-HRGβ1(177-244) (0.23 nM) from ErbB4-IgG captured on goat-anti-human antibody coated wells. The protocol:
as §1, §2

Like-named read-outs stand apart in the source and are kept apart here.

T1 sequence (P21860 other isoform, or with tags, fused parts or gaps limits assumed): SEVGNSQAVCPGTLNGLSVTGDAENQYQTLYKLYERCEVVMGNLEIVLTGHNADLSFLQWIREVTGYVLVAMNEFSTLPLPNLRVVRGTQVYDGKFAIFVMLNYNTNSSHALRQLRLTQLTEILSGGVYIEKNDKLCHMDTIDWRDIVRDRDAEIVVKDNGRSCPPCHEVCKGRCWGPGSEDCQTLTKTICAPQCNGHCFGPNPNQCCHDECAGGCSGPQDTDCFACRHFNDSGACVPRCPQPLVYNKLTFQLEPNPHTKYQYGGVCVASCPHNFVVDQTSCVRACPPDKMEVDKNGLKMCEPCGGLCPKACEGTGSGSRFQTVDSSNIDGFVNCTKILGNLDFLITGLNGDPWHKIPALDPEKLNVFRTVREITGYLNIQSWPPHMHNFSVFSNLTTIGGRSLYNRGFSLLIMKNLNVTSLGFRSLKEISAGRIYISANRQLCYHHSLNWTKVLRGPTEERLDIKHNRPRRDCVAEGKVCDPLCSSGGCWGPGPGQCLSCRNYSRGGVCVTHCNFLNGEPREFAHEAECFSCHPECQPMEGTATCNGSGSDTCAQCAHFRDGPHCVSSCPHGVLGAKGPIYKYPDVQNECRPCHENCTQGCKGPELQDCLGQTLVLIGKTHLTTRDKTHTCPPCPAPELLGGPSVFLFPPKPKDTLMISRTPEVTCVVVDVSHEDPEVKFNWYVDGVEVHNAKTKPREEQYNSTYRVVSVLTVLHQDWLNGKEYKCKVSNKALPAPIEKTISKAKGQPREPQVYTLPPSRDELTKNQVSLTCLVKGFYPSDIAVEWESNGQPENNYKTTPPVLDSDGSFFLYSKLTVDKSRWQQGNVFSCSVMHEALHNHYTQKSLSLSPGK
T2 sequence (Q15303 other isoform, or with tags, fused parts or gaps limits assumed): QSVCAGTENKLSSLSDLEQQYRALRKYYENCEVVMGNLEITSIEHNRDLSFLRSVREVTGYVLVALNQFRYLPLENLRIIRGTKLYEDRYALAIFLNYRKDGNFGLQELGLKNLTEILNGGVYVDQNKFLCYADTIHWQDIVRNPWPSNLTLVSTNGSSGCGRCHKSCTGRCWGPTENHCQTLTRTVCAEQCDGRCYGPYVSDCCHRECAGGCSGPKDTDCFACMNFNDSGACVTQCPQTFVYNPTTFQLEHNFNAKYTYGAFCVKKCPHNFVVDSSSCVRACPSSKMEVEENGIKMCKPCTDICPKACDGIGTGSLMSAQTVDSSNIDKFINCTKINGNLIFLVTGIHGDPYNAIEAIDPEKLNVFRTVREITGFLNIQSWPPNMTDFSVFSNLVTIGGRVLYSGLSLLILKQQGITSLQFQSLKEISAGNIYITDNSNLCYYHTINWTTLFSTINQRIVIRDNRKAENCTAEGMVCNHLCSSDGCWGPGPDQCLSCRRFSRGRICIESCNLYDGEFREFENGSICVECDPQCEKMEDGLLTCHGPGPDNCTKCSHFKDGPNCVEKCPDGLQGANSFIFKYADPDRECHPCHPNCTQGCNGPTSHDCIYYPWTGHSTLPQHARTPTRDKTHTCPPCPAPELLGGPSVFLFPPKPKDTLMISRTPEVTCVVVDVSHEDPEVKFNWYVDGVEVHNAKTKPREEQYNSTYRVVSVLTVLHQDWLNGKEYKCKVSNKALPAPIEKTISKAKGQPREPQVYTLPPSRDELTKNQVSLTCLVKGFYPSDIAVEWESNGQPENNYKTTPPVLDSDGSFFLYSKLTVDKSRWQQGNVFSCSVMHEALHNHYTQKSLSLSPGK

For the molecule anti-ErbB2 monoclonal antibody 4D5, the growth inhibition of SK-BR-3 cells (crystal violet staining) in assay [1] came to 66%.

“EGF-like domain of HRGβ1(177-244), expressed in E. coli (from UniProt Q02297 177-244) (ligand)” returned an EC50 of tyrosine phosphorylation in MCF7 cells in assay [2] of 0.06 nM.

B1: trxγ-HRG (amino acids 455-768), N-terminal truncated γ-HRG thioredoxin fusion protein (ligand)
chain: QVFIDHPVHLKFNVSLGKAALVGIYGRKGLPPSHTQFDFVELLDGRRLLTQEARSLEGTPRQSRGTVPPSSHETGFIQYLDSGIWHLAFYNDGKESEVVSFLTTAIALPPRLKEMKSQESAAGSKLVLRCETSSEYSSLRFKWFKNGNELNRKNKPQNIKIQKKPGKSELRINKASLADSGEYMCKVISKLGNDSASANITIVESNEIITGMPASTEGAYVSSESPIRISVSTEGANTSSSTSTSTTGTSHLVKCAEKEKTFCVNGGECFMVKDLSNPSRYLCKCPNEFTGDRCQNYVMASFYSTSTPFLSLPE
notes: The results text calls it simply γ-HRG; also called recombinant γ-HRG; bacterial expressed truncated γ-HRG; not shown: N-terminal thioredoxin encoded by the pET-32a TRX fusion vector (Novagen); vector-encoded residues of pET32a between thioredoxin and the BamHI insertion site are not described
In assay [3], B1 registered an EC50 of tyrosine phosphorylation in MCF7 cells of 0.06 nM. For the same molecule, the EC50 in assay [4] was found to be 19 nM; in assay [5], 13.3 nM.
